In general, Kd refers to the equilibrium constant for the complex coming apart.

For assay [1], the target named is T1, MICB*004 ECD (human, UniProt Q29980).
T1 chain: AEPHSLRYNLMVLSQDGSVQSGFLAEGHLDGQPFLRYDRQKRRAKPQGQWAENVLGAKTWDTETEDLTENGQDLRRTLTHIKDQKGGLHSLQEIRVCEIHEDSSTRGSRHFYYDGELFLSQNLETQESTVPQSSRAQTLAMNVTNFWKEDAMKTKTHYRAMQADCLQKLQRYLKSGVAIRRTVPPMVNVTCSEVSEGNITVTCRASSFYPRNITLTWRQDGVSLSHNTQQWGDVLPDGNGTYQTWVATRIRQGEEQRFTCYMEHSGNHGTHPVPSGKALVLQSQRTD
The assay can be described thus: BLI, monovalent. Background: Biolayer interferometry detects binding as a change in optical thickness at a sensor tip.

For assay [2], the target named is T2, MICA ECD (alleles *001, *002, *004, *008) (human, UniProt Q29983).
T2 chain: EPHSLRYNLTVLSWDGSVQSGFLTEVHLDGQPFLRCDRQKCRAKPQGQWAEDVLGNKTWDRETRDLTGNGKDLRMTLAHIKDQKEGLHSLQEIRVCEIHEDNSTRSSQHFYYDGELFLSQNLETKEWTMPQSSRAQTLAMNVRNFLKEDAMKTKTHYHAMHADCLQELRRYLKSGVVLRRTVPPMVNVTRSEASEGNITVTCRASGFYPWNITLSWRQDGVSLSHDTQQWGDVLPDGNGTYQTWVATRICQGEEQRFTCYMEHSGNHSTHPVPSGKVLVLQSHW
In words: BLI, monovalent, lowest of MICA alleles.

B1: CLN-619 (3F9H1L3L) (antibody, V domains shown)
VH: QVQLVESGGGLVKPGGSLRLSCAASGFTFSNYAMSWIRQAPGKGLEWVSYISPGGDYIYYADSVKGRFTISRDNAKNSLYLQMNSLRAEDTAVYYCTTDRRHYGSYAMDYWGQGTLVTVSS
VL: DIVMTQSPLSLPVTPGEPASISCRSSKSLLHSNLNTYLYWFLQKPGQSPQILIYRMSNLASGVPDRFSGSGSGTAFTLKISRVEAEDVGVYYCMQHLEYPFTFGPGTKLEIKR
Consider B1, for which the Kd was 11.4 nM in assay [1] and 0.77 nM in assay [2].

Source of the values: patent US20260317426 (published 2026).
